In this experiment the target is T1, VEGF165 (human VEGF-A), immobilized (human, UniProt P15692-4 27-191).
T1 construct: Immobilized on the Biacore chip; also called vascular endothelial growth factor A
Put plainly: SPR (Biacore), VEGF165 immobilized. A general note: In SPR one partner is held on a chip, and binding of the other changes the refractive index at the surface.

T1 sequence (P15692 other isoform, or with tags, fused parts or gaps limits assumed): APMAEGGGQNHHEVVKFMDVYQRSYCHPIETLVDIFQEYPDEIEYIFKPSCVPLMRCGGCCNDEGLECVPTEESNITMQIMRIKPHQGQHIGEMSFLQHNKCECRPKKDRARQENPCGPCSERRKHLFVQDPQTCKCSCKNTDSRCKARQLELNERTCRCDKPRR
Protocol: To study the binding of bevacizumab to VEGF, a surface plasmon resonance (SPR) assay using Biacore™ was carried out. The interaction between bevacizumab and its target, immobilized VEGF₁₆₅, is monitored in real time. Analysis of the association and dissociation of the binding partners allows the retrieval of the kinetic parameters kₐ (association rate constant) and kd (dissociation rate constant), which quantifies the interaction between bevacizumab or its variants and VEGF₁₆₅. Furthermore, the equilibrium dissociation constant KD is calculated using the formula KD=kd/kₐ.

B1: bevacizumab CEX peak 1, fraction enriched in CDR-H1 glycosylated bevacizumab (antibody, human IgG1, kappa, V domains shown)
VH: EVQLVESGGGLVQPGGSLRLSCAASGYTFTNYGMNWVRQAPGKGLEWVGWINTYTGEPTYAADFKRRFTFSLDTSKSTAYLQMNSLRAEDTAVYYCAKYPHYYGSSHWYFDVWGQGTLVTVSS
VL: DIQMTQSPSSLSASVGDRVTITCSASQDISNYLNWYQQKPGKAPKVLIYFTSSLHSGVPSRFSGSGSGTDFTLTISSLQPEDFATYYCQQYSTVPWTFGQGTKVEIKR
modifications: N-linked complex-type glycan (core-fucosylated, mono- to tetra-antennary, partly sialylated) at N31 of the heavy chain, in CDR-H1
notes: Humanized IgG1; also called enriched CDR-H1 glycosylated bevacizumab obtained from CEX; Fd-glycosylated variant
As usually defined, the Kd is the constant that tells how readily two partners part at equilibrium. High values mean weaker binding, low ones tighter binding. B1 came in with a Kd of 0.235 nM.

The record behind these values is patent US20200055923A1 (HEXAL, published 2020).
